Common to all, as to assay: cell-based or functional assay
The target in experiment [1] is T1, human GIP receptor (human, UniProt P48546 22-466).
T1 sequence (looked up): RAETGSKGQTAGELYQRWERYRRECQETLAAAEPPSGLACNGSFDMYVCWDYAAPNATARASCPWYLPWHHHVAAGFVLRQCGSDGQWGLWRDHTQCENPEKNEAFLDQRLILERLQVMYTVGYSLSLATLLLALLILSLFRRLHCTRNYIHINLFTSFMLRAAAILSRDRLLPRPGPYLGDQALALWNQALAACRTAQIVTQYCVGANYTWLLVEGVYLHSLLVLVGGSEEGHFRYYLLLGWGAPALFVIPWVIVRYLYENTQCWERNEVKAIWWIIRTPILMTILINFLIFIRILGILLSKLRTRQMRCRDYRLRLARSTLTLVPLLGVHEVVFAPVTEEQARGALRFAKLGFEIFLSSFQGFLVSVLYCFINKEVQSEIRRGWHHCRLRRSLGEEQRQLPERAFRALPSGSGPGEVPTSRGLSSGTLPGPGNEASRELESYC

In experiment [2] the target is human glucagon receptor (human, UniProt P47871 26-477).
Experiment [3] deals with human GLP-1 receptor (human, UniProt P43220 24-463).

Changes are numbered by the printed parent chain.

B1: Example 218 (peptide)
peptide: YXEGTXTSDXXIXLDXIAQXKFIKXLIEGGPSSGAPPPS
modifications: Y-Aib-EGT-αMeF(2F)-TSD-4Pal-Aib-I-αMeL-LD-Orn-IAQ-Aib-K((2-[2-(2-Amino-ethoxy)-ethoxy]-acetyl)2-(γ-Glu)-CO-(CH2)12-CO2H)FIK((2-[2-(2-Amino-ethoxy)-ethoxy]-acetyl)2-(γ-Glu)-CO-(CH2)12-CO2H)-αMeY-LIEGGPSSGAPPPS-NH2
Regarding B1, the entries for the “cAMP EC50 (1.0% HSA)” value in experiment [1], in experiment [2] and in experiment [3] were 3.27 nM, above 9950 nM and 36.6 nM, respectively. The entries for the “cAMP Emax (1.0% HSA)” value in experiment [1] and in experiment [3] were 95.9% and 121%, respectively.

B2: Example 255 (peptide)
peptide: B1 peptide with X11S, I17K, K24X
modifications: Y-Aib-EGT-αMeF(2F)-TSD-2Nal-SI-αMeL-LD-Orn-K((2-[2-(2-Amino-ethoxy)-ethoxy]-acetyl)2-CO-(CH2)12-CO2H)AQ-Aib-K((2-[2-(2-Amino-ethoxy)-ethoxy]-acetyl)2-CO-(CH2)12-CO2H)FI-(D-Glu)-αMeY-LIEGGPSSGAPPPS-NH2 …
Turning to B2, the “cAMP EC50 (1.0% HSA)” value is 2.27 nM in experiment [1], above 9950 nM in experiment [2] and 13.7 nM in experiment [3].

B3: Example 265 (peptide)
peptide: B1 peptide with X11S, I17K, K24X
modifications: Y-Aib-EGT-αMeF(2F)-TSD-OMeY-SI-αMeL-LD-Orn-K((2-[2-(2-Amino-ethoxy)-ethoxy]-acetyl)2-CO-(CH2)12-CO2H)AQ-Aib-K((2-[2-(2-Amino-ethoxy)-ethoxy]-acetyl)2-CO-(CH2)12-CO2H)FI-(D-Glu)-αMeY-LIEGGPSSGAPPPS-NH2 …
B3: the “cAMP EC50 (1.0% HSA)” value is 0.775 nM in experiment [1], above 9950 nM in experiment [2] and 5.14 nM in experiment [3].

B4: Example 259 (peptide)
peptide: B1 peptide with X11S, I17K, K24X
modifications: Y-Aib-EGT-αMeF(2F)-TSD-OMeY-SI-αMeL-LD-Orn-K((2-[2-(2-Amino-ethoxy)-ethoxy]-acetyl)2-(γ-Glu)-CO-(CH2)12-CO2H)AQ-Aib-K((2-[2-(2-Amino-ethoxy)-ethoxy]-acetyl)2-(γ-Glu)-CO-(CH2)12-CO2H)FI-(D-Glu)-αMeY-LIEGGPSSGAPPPS-NH2
B4: the figures for the “cAMP EC50 (1.0% HSA)” value in experiment [1], in experiment [2] and in experiment [3] were 2.34 nM, above 9950 nM and 28.9 nM, respectively. In addition, the “cAMP Emax (1.0% HSA)” value in experiment [1] was found to be 66.4%.

B5: Example 252 (peptide)
peptide: B1 peptide with X11S, K21E, E28K
modifications: Y-Aib-EGT-αMeF(2F)-TSD-2Nal-SI-αMeL-LD-Orn-IAQ-Aib-EFIK((2-[2-(2-Amino-ethoxy)-ethoxy]-acetyl)2-(γ-Glu)-CO-(CH2)12-CO2H)-αMeY-LIK((2-[2-(2-Amino-ethoxy)-ethoxy]-acetyl)2-(γ-Glu)-CO-(CH2)12-CO2H)GGPSSGAPPPS-NH2
On to B5, for which the “cAMP EC50 (1.0% HSA)” value in experiment [1] was 29.9 nM; in experiment [2], above 9950 nM; in experiment [3], 131 nM.

B6: Example 249 (peptide)
peptide: B1 peptide with X11S, I17K, K24X
modifications: Y-Aib-EGT-αMeF(2F)-TSD-2Nal-SI-αMeL-LD-Orn-K((2-[2-(2-Amino-ethoxy)-ethoxy]-acetyl)2-(γ-Glu)-CO-(CH2)12-CO2H)AQ-Aib-K((2-[2-(2-Amino-ethoxy)-ethoxy]-acetyl)2-(γ-Glu)-CO-(CH2)12-CO2H)FI-(D-Glu)-αMeY-LIEGGPSSGAPPPS-NH2
Take B6: the “cAMP EC50 (1.0% HSA)” value in experiment [1] is 5.88 nM; in experiment [2] it was above 9950 nM; in experiment [3], 51.6 nM.

B7: Example 226 (peptide)
peptide: B1 peptide with X11S, K21E, E28K
modifications: Y-Aib-EGT-αMeF(2F)-TSD-4Pal-SI-αMeL-LD-Orn-IAQ-Aib-EFIK((2-[2-(2-Amino-ethoxy)-ethoxy]-acetyl)3-(γ-Glu)-CO-(CH2)12-CO2H)-αMeY-LIK((2-[2-(2-Amino-ethoxy)-ethoxy]-acetyl)3-(γ-Glu)-CO-(CH2)12-CO2H)GGPSSGAPPPS-NH2
In the case of B7, the “cAMP EC50 (1.0% HSA)” value in experiment [1] is 4.86 nM; in experiment [2], above 9950 nM; in experiment [3], 11.3 nM.

B8: Example 233 (peptide)
peptide: B1 peptide with X10Y, K21E, E28K
modifications: Y-Aib-EGT-αMeF(2F)-TSDY-Aib-I-αMeL-LD-Orn-IAQ-Aib-EFIK((2-[2-(2-Amino-ethoxy)-ethoxy]-acetyl)2-(γ-Glu)-CO-(CH2)12-CO2H)-αMeY-LIK((2-[2-(2-Amino-ethoxy)-ethoxy]-acetyl)2-(γ-Glu)-CO-(CH2)12-CO2H)GGPSSGAPPPS-NH2
On to B8, for which the “cAMP EC50 (1.0% HSA)” value in experiment [1] is 6.08 nM; in experiment [2], above 9950 nM; in experiment [3], 56.7 nM. The “cAMP Emax (1.0% HSA)” value in experiment [1] was 91.4%.

B9: Example 246 (peptide)
peptide: B1 peptide with K21E, E28K
modifications: Y-Aib-EGT-αMeF(2F)-TSD-4Pal-Aib-I-αMeL-LD-Orn-IAQ-Aib-EFIK((2-[2-(2-Amino-ethoxy)-ethoxy]-acetyl)2-(γ-Glu)-(10-(4-carboxyphenoxy)decanoyl))-αMeY-LIK((2-[2-(2-Amino-ethoxy)-ethoxy]-acetyl)2-(γ-Glu)-(10-(4-carboxyphenoxy)decanoyl))GGPSSGAPPPS-NH2
In the case of B9, the “cAMP EC50 (1.0% HSA)” value is 1.63 nM in experiment [1], above 9950 nM in experiment [2] and 22.9 nM in experiment [3].

B10: Example 262 (peptide)
peptide: B1 peptide with X11S, K21E, E28K
modifications: Y-Aib-EGT-αMeF(2F)-TSD-OMeY-SI-αMeL-LD-Orn-IAQ-Aib-EFIK((2-[2-(2-Amino-ethoxy)-ethoxy]-acetyl)2-(γ-Glu)-CO-(CH2)12-CO2H)-αMeY-LIK((2-[2-(2-Amino-ethoxy)-ethoxy]-acetyl)2-(γ-Glu)-CO-(CH2)12-CO2H)GGPSSGAPPPS-NH2
As for B10, the entries for the “cAMP EC50 (1.0% HSA)” value in experiment [1], in experiment [2] and in experiment [3] were 8.15 nM, above 9950 nM and 69.8 nM, respectively. Besides, the “cAMP Emax (1.0% HSA)” value in experiment [1] worked out at 79.7%.

B11: Example 219 (peptide)
peptide: B1 peptide with K21E, E28K
modifications: Y-Aib-EGT-αMeF(2F)-TSD-4Pal-Aib-I-αMeL-LD-Orn-IAQ-Aib-EFIK((2-[2-(2-Amino-ethoxy)-ethoxy]-acetyl)2-(γ-Glu)-CO-(CH2)12-CO2H)-αMeY-LIK((2-[2-(2-Amino-ethoxy)-ethoxy]-acetyl)2-(γ-Glu)-CO-(CH2)12-CO2H)GGPSSGAPPPS-NH2
For the molecule B11, the results for the “cAMP EC50 (1.0% HSA)” value in experiment [1], in experiment [2] and in experiment [3] were 2.86 nM, above 9950 nM and 25.9 nM, respectively.

B12: Example 253 (peptide)
peptide: B1 peptide with X11S, K24X, E28K
modifications: Y-Aib-EGT-αMeF(2F)-TSD-2Nal-SI-αMeL-LD-Orn-IAQ-Aib-K((2-[2-(2-Amino-ethoxy)-ethoxy]-acetyl)2-(γ-Glu)-CO-(CH2)12-CO2H)Fl-(D-Glu)-αMeY-LIK((2-[2-(2-Amino-ethoxy)-ethoxy]-acetyl)2-(γ-Glu)-CO-(CH2)12-CO2H)GGPSSGAPPPS-NH2
As to B12, the figures for the “cAMP EC50 (1.0% HSA)” value in experiment [1], in experiment [2] and in experiment [3] were 21.7 nM, above 9950 nM and 192 nM, respectively.

B13: Example 263 (peptide)
peptide: B1 peptide with X11S, K24X, E28K
modifications: Y-Aib-EGT-αMeF(2F)-TSD-OMeY-SI-αMeL-LD-Orn-IAQ-Aib-K((2-[2-(2-Amino-ethoxy)-ethoxy]-acetyl)2-(γ-Glu)-CO-(CH2)12-CO2H)FI-(D-Glu)-αMeY-LIK((2-[2-(2-Amino-ethoxy)-ethoxy]-acetyl)2-(γ-Glu)-CO-(CH2)12-CO2H)GGPSSGAPPPS-NH2
With B13, the “cAMP EC50 (1.0% HSA)” value in experiment [1] was 5.91 nM; in experiment [2], above 9950 nM; in experiment [3], 56.7 nM.

B14: Example 227 (peptide)
peptide: B1 peptide with X11S, K24X, E28K
modifications: Y-Aib-EGT-αMeF(2F)-TSD-4Pal-SI-αMeL-LD-Orn-IAQ-Aib-K((2-[2-(2-Amino-ethoxy)-ethoxy]-acetyl)3-(γ-Glu)-CO-(CH2)12-CO2H)FI-(D-Glu)-αMeY-LIK((2-[2-(2-Amino-ethoxy)-ethoxy]-acetyl)3-(γ-Glu)-CO-(CH2)12-CO2H)GGPSSGAPPPS-NH2
With B14, the “cAMP EC50 (1.0% HSA)” value in experiment [1] is 1.59 nM; in experiment [2], above 9950 nM; in experiment [3], 41.8 nM.

B15: Example 239 (peptide)
peptide: B1 peptide with X10Y, K21E, E28K
modifications: Y-Aib-EGT-αMeF(2F)-TSDY-Aib-I-αMeL-LD-Orn-IAQ-Aib-EFIK((2-[2-(2-Amino-ethoxy)-ethoxy]-acetyl)2-(γ-Glu)-(10-(4-carboxyphenoxy)decanoyl))-αMeY-LIK((2-[2-(2-Amino-ethoxy)-ethoxy]-acetyl)2-(γ-Glu)-(10-(4-carboxyphenoxy)decanoyl))GGPSSGAPPPS-NH2
Turning to B15, the “cAMP EC50 (1.0% HSA)” value in experiment [1] is 5.46 nM; in experiment [2], above 9950 nM; in experiment [3] it was 25.2 nM.

Values taken from patent publication US20230265151A1, “GIP/GLP1 CO-AGONIST COMPOUNDS” (priority 2020, published 2023).
